Source: PMC1635277

Assays:
Experiment in all cases: purified protein
Settings in all cases: 20 mM Tris-HCl pH 8.5, 50 mM NaCl, 100 µg/ml BSA, 37°C
[1] = system: Nc1nc2c(ncn2[C@@H]2O[C@H](CO)[C@@H](OP(=O)(O)OC[C@H]3O[C@@H](n4ccc(=O)[nH]c4=O)[C@H](O)[C@@H]3OP(=O)(O)OC[C@H]3O[C@@H](n4cnc5c(N)ncnc54)[C@H](O)[C@@H]3O)[C@H]2O)c(=O)[nH]1
[2] = system: Nc1nc2c(ncn2[C@@H]2O[C@H](CO)[C@@H](OP(=O)(O)OC[C@H]3O[C@@H](n4ccc(=O)[nH]c4=O)[C@H](O)[C@@H]3OP(=O)(O)O)[C@H]2O)c(=O)[nH]1
[3] = system: Nc1nc2c(ncn2[C@@H]2O[C@H](COP(=O)(O)O[C@H]3[C@@H](O)[C@H](n4ccc(=O)[nH]c4=O)O[C@@H]3CO)[C@@H](OP(=O)(O)OC[C@H]3O[C@@H](n4ccc(=O)[nH]c4=O)[C@H](O)[C@@H]3OP(=O)(O)OC[C@H]3O[C@@H](n4cnc5c(N)ncnc54)[C@H](O)[C@@H]3O)[C@H]2O)c(=O)[nH]1
[4] = system: Nc1nc2c(ncn2[C@@H]2O[C@H](COP(=O)(O)O[C@H]3[C@@H](O)[C@H](n4ccc(=O)[nH]c4=O)O[C@@H]3CO)[C@@H](OP(=O)(O)OC[C@H]3O[C@@H](n4ccc(=O)[nH]c4=O)[C@H](O)[C@@H]3OP(=O)(O)O)[C@H]2O)c(=O)[nH]1
[5] = system: Nc1nc2c(ncn2[C@@H]2O[C@H](COP(=O)(O)O[C@H]3[C@@H](O)[C@H](n4cnc5c(N)ncnc54)O[C@@H]3CO)[C@@H](OP(=O)(O)OC[C@H]3O[C@@H](n4ccc(=O)[nH]c4=O)[C@H](O)[C@@H]3OP(=O)(O)OC[C@H]3O[C@@H](n4cnc5c(N)ncnc54)[C@H](O)[C@@H]3O)[C@H]2O)c(=O)[nH]1
[6] = system: Nc1nc2c(ncn2[C@@H]2O[C@H](COP(=O)(O)O[C@H]3[C@@H](O)[C@H](n4ccc(=O)[nH]c4=O)O[C@@H]3CO)[C@@H](OP(=O)(O)OC[C@H]3O[C@@H](n4ccc(=O)[nH]c4=O)[C@H](O)[C@@H]3O)[C@H]2O)c(=O)[nH]1

Question: Which results are given for “E5-CRD (colicin E5 C-terminal ribonuclease domain) (Escherichia coli)”?
Answer: Km [1]: 53.6 (16) μM; kcat [1]: 11.7 s⁻¹; kcat/Km [1]: 218000 M⁻¹ s⁻¹; Km [2]: 32.9 (5.5) μM; kcat [2]: 42.9 s⁻¹; kcat/Km [2]: 1.3e+06 M⁻¹ s⁻¹; Km [3]: 59.5 (18) μM; kcat [3]: 84.2 s⁻¹; kcat/Km [3]: 1.41e+06 M⁻¹ s⁻¹; Km [4]: 41.3 (16) μM; kcat [4]: 34 s⁻¹; kcat/Km [4]: 823000 M⁻¹ s⁻¹; Km [5]: 90.6 (23) μM; kcat [5]: 65.8 s⁻¹; kcat/Km [5]: 730000 M⁻¹ s⁻¹; Km [6]: 143 (38) μM; kcat [6]: 3.57 s⁻¹; kcat/Km [6]: 25100 M⁻¹ s⁻¹
